Assay results reported in US10456446B2, “Use of human small leucine zipper protein in osteogenesis procedure” (Korea University Research and Business Foundation, priority 2013, dated 2019).

Experiments:
PPARγ2 and PGC1α = biological target: T1, PPARγ2 and PGC1α (Homo sapiens, UniProt P37231); test: GST pull-down, coactivator PGC1α on PPARγ2; assay type: binding; conditions: 10 nM RZD for 24 hours
T1 construct: expressed in transfected cells; host or cells: 293T (PGC1α endogenous)
T1 sequence (P37231 1-505): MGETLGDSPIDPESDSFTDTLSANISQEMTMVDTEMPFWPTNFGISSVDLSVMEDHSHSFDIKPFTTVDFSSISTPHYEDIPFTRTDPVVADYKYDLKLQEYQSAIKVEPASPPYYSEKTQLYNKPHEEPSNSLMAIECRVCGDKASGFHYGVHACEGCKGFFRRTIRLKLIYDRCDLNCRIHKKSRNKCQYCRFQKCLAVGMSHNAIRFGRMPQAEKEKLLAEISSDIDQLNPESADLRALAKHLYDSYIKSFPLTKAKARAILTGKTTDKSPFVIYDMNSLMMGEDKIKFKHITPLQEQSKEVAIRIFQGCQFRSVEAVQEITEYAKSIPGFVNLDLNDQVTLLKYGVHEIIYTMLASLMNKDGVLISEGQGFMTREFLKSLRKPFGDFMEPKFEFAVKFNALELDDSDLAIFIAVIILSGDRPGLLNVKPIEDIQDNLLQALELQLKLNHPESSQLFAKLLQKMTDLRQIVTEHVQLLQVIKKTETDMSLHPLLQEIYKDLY
Procedure: Therefore, in order to understand a regulation mechanism of sLZIP in the PPARγ2 transcriptional activity by binding to the FABP4 promoter region, an effect of sLZIP on the interaction between PPARγ2 and HDAC3 was examined. For this purpose, 293T cells were transfected with GST-HDAC3, Myc-PPARγ2 and Flag-sLZIP, and were treated or not treated with 10 nM of RZD for 24 hours. Cell lysates were subjected to GST pull-down analysis using a glutathione 4B bead, and a protein complex was analyzed in SDS-PAGE, and then immunoblotted with anti-GST, anti-Myc and anti-Flag antibodies (FIG. 6A). GST-HDAC3, GST-PPARγ2, Myc-PPARγ2, Flag-sLZIP and Ha-UB were expressed in the 293T cells, and the cells were treated with 10 nM of RZD for 24 hours. Cell lysates were subjected to GST pull-down analysis (FIG. 6B). GST-PPARγ2 and Flag-sLZIP were expressed in the 293T cells and treated with 10 nM of RZD for 24 hours. Cell lysates were subjected to GST pull-down analysis, and a protein complex was analyzed in SDS-PAGE, and then immunoblotted with anti-PGC1α, anti-GST and anti-Flag antibodies (FIG. 6C).

sLZIP TG mouse embryos = test: Ossification in vivo, alcian blue and alizarin red staining of sLZIP TG mouse embryos on E17.5; conditions: E17.5, compared with wild type littermate
Description: In order to generate human sLZIP transgenic (TG) mice, sLZIP genes were cloned into a pCMV-flag expression vector. The sLZIP TG mice were generated by Macrogen, Inc (Seoul, Korea). Transgenic founders were mated with wild type C57BL/6 mice to produce F1 heterozygotes. F1-F4 generations were genetically screened for transgenes at an age of 2 weeks old. The following two primers were used to amplify genomic DNA in order to identify wild type and TG mice: 5′-GGACGATGATGACAAGGACT-3′ (SEQ ID NO: 25) and 5′-GTCAGAGGAGTACATGCTGCT-3′(SEQ ID NO: 26).
Therefore, in order to characterize a potential role of sLZIP in the transcriptional activity of Runx2 by inhibiting the transcriptional activity of PPARγ2, the transcriptional activity of Runx2 was examined. For this purpose, 293T cells were temporarily transfected with Runx2 (0.5 μg), β-galactosidase (0.1 μg), 6 copies of Runx2 response elements (0.2 μg) and sLZIP at different contents (0.1 μg to 0.5 μg) (FIG. 7A). PPARγ2 (0.5 μg), β-galactosidase, Runx2, 6 copies of Runx2 response elements and sLZIP (0.5 μg) were expressed in the 293T cells (FIG. 7B). 293T cells were temporarily transfected with HDAC3 (0.5 μg), Runx2, β-galactosidase, 6 copies of Runx2 response elements and sLZIP at different contents (0.25 and 0.5 μg) (FIG. 7C). A promoter activity was measured by luciferase analysis. […]

complementing of coactivator PGC-la for PPARγ2 (PPARγ2 and PGC1α): inhibited
B1: sLZIP: human small leucine-zipper protein, isoform of LZIP, 354 amino acids, no transmembrane domain, GenBank FJ263669, SEQ ID NO: 1 (protein, listed as Homo sapiens)
chain: MELELDAGDQDLLAFLLEESGDLGTAPDEAVRAPLDWALPLSEVPSDWEVDDLLCSLLSPPASLNILSSSNPCLVHHDHTYSLPRETVSMDLESESCRKEGTQMTPQHMEELAEQEIARLVLTDEEKSLLEKEGLILPETLPLTKTEEQILKRVRRKIRNKRSAQESRRKKKVYVGGLESRVLKYTAQNMELQNKVQLLEEQNLSLLDQLRKLQAMVIEISNKTSSSSMYSSDTRGSLPAEHGVLSRQLRALPSEDPYQLELPALQSEVPKDSTHQWLDGSDCVLQAPGNTSCLLHYMPQAPSAEPPLEWPFPDLFSEPLCRGPILPLQANLTRKGGWLPTGSPSVILQDRYSG
ossification of skull and limb (sLZIP TG mouse embryos): further promoted ossification
